The target of the assay is T1, gp100 (gp100-intron4) peptide on HLA-A*24:02 (human).
T1 peptide: VYFFLPDHL
In words: multimer staining.

B1: A*24:02/gp100-intron4 TCR (TCR, V domains shown)
Valpha: KQEVTQIPAALSVPEGENLVLNCSFTDSAIYNLQWFRQDPGKGLTSLLLIQSSQREQTSGRLNASLDKSSGRSTLYIAASQPGDSATYLCAVATDSWGKLQFGAGTQVVVTP
Vbeta: AAGVIQSPRHLIKEKRETATLKCYPIPRHDTVYWYQQGPGQDPQFLISFYEKMQSDKGSIPDRFSAQQFSDYHSELNMSSLELGDSALYFCASSLLPEGTGRVSGYTFGSGTRLTVV
For B1, the binding result was “recognises”.

Source of the values: US20220168347A1 (published 2022).
